# According to publication PMC7884259:
# Target: ATAD2B bromodomain (residues 953–1085) (human) (UniProt Q9ULI0)
# Test: ITC
# Sequence of ATAD2B bromodomain (residues 953–1085) (human) (Q9ULI0 953-1085): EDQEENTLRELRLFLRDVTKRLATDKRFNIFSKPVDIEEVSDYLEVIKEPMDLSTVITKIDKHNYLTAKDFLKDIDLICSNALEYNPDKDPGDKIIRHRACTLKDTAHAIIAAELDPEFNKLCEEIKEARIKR
row,Kd [µM],Substance
1,50.5,H4K12ac (res 4–17) (peptide)
2,214,H4K12acK16ac (res 10–20) (peptide)
